Assay results reported in patent US20210155699A1.
Changes are numbered by the printed parent chain. Names may count otherwise.

B1: 2F8-HG-F273L (antibody, part only; not given: anti-EGFr VH and light chain, part only)
heavy, part: ASTKGPSVFPLAPCSRSTSESTAALGCLVKDYFPEPVTVSWNSGALTSGVHTFPAVLQSSGLYSLSSVVTVPSSSLGTKTYTCNVDHKPSNTKVDKRVAPEFLGGPSVFLFPPKPKDTLMISRTPEVTCVVVDVSQEDPEVQFNWYVDGVEVHNAKTKPREEQFNSTYRVVSVLTVLHQDWLNGKEYKCKVSNKGLPSSIEKTISKAKGQPREPQVYTLPPSQEEMTKNQVSLTCLVKGFYPSDIAVEWESNGQPENNYKTTPPVLDSDGSFLLYSRLTVDKSRWQEGNVFSCSVMHEALHNHYTQKSLSLSLGK
B2: 2F8-HG-F273A (antibody, part only; not given: anti-EGFr VH and light chain, part only)
heavy, part: B1 heavy, part with L273A

How the values were obtained:
[1] = molecular target: 2F8-HG-Y275A; assay: non-covalent nano-ESI MS, 0.01-10 uM; self-dimerisation (FIG. 6)
[2] = molecular target: purified EGFr (Sigma) (UniProt P00533); assay: ELISA on coated purified EGFr (50 ng/well), without and with polyclonal human IgG (IVIG), both curves in the same bundle
[3] = molecular target: EGFr in A431 cells (UniProt P00533)
[4] = molecular target: 2F8-HG-L236V; assay: non-covalent nano-ESI MS, 0.01-10 uM; self-dimerisation (FIG. 6)
[5] = molecular target: 2F8-HG-F273A; assay: as above

EC50 (read off the curve) [2] [µg/mL] | also measured | Molecule
– | percent monomeric at low concentrations [1]: 100% | 2F8-HG-Y275A (antibody)
0.08 | – | 2F8-HG-R277K (antibody)
0.08 | IC50 (read off the curve) [3]: 3 nM | 2F8-HG-R277A (antibody)
– | percent monomeric at low concentrations [4]: 100% | 2F8-HG-L236V (antibody)
0.08 | – | B1
0.08 | percent monomeric at low concentrations [5]: 100% | B2
